Laboratory results taken from publication PMC3847722 (Toxins, 2013).

Biological target: T1, botulinum neurotoxin serotype B (Clostridium botulinum., UniProt P10844)
T1 construct: source: bought: Metabiologics Inc
Test: BLI; […], dissociation in PBS 1800 s; 1:1 model, […]
Conditions: both partners purified

B1: MCS6-27 (antibody, V domains shown)
VH: EVQLEQSGPGLVKPSQSLSLTCTVTGYSITNDYAWNWIRQFPGNKLEWMGYINYSGTTSYNPSLKSRISITRDTSKNQFFLQFNSVTTEDTATYYCARSPLAYWGQGTLVTVSA
VL: DIVLTQTPASLSVSVGETVTITCRASENIYSHLAWYQQKQGKSPQLLVYTATNLADGVPSRFSGRGSGTQYSLKINSLQSEDFGIYFCQHFWGTPWTFGGGTKLEIK
notes: also called mAb MCS6-27; mAb6-27
How did the Kd turn out when B1 was run?
Its Kd is 0.086 nM.
